{"source": "the RNAGym collection of RNA variant scans (doi:10.1073/pnas.2313332121)", "parents": {"B1": {"name": "TPR 5TU (parent)", "chain": "GGAUCUUCUCGAUCUAACAAAAAAGACAAAUCUGCCACAAAGCUUGAGAGCAUCUUCGGAUGCAGAGGCGGCAGCCUUCGGUGGCGCGAUAGCGCCAACGUUCUCAACUAUGACACGCAAAACGCGUGCUCCGUUGAAUGGAGUUUAUCAUG"}}, "note": "Fewer inactive variants are shown than the library holds."}
{"variants_of": "B1", "assay": "polymerase ribozyme fitness, log enrichment relative to wild type (log ratio); higher = more active; in vitro selection for triplet polymerase activity", "outline": "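Each subunit of a heterodimeric triplet polymerase ribozyme was mutagenized into a library by PCR, transcribed, and subjected to one round of in vitro selection, run in triplicate. Libraries were annealed with a biotinylated primer, the partner subunit and triplets, incubated frozen at −7 °C, and extended constructs were gel-excised, captured on streptavidin beads and recovered by RT-PCR. Input and output libraries were sequenced on Illumina, keeping genotypes with ≥10 input reads and ≥1 read per output. Fitness is log base 2 of genotype enrichment divided by wild-type enrichment, from inverse-variance-weighted replicate averages.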"}
{"variant": "U13G A19U C51U A97U", "polymerase ribozyme fitness (log ratio)": -2.04}
{"variant": "U13G G59A", "polymerase ribozyme fitness (log ratio)": -1.2}
{"variant": "C14A A19U U33G C69A C75G C96A A97G A106C G140C", "polymerase ribozyme fitness (log ratio)": "≤ -4.2"}
{"variant": "A12G A16U G42C C75U C129U", "polymerase ribozyme fitness (log ratio)": "≤ -4.2"}
{"variant": "C14A C54G G62A G86U U101G G141U", "polymerase ribozyme fitness (log ratio)": "≤ -4.2"}
{"variant": "C14G A52C C85A", "polymerase ribozyme fitness (log ratio)": "≤ -4.2"}
{"variant": "C14A A20U A47U C76U C85A C95U A115U C131G", "polymerase ribozyme fitness (log ratio)": "≤ -4.2"}
{"variant": "A12U C27G A41G C87U A91G G140U", "polymerase ribozyme fitness (log ratio)": "≤ -4.2"}
{"variant": "A12U A21C A52C C85U", "polymerase ribozyme fitness (log ratio)": -1.19}
{"variant": "U13G A16U G42C G84A", "polymerase ribozyme fitness (log ratio)": "≤ -4.2"}
{"variant": "A12U G58C C76U U102G A138C", "polymerase ribozyme fitness (log ratio)": "≤ -4.2"}
{"variant": "A12G A52C G59A", "polymerase ribozyme fitness (log ratio)": -1.78}
{"variant": "U13G C32U G88C A97U", "polymerase ribozyme fitness (log ratio)": "≤ -4.2"}
{"variant": "U13A A37G C93U", "polymerase ribozyme fitness (log ratio)": -3.74}
{"variant": "A12G U44G A60G G65C C114G", "polymerase ribozyme fitness (log ratio)": "≤ -4.2"}
{"variant": "C14A U55G C63G C93U C118U", "polymerase ribozyme fitness (log ratio)": "≤ -4.2"}
{"variant": "A12U U56A C93U", "polymerase ribozyme fitness (log ratio)": -1.4}
{"variant": "A12G C54A U55G G58C G92A A97U C125G G128U U135C A138G U139A U145G", "polymerase ribozyme fitness (log ratio)": "≤ -4.2"}
{"variant": "A12U A17C A24G C79U C118U", "polymerase ribozyme fitness (log ratio)": "≤ -4.2"}
{"variant": "U13G U15A C36A A40C U56A G58A A107U G124U C131A", "polymerase ribozyme fitness (log ratio)": "≤ -4.2"}
{"variant": "U13C A21U A52C U55G G67U G80A C105U A150C", "polymerase ribozyme fitness (log ratio)": "≤ -4.2"}
{"variant": "A12U A16G A40C U55A G81A C118G C129A", "polymerase ribozyme fitness (log ratio)": "≤ -4.2"}
{"variant": "C14A A40U C87A G136C", "polymerase ribozyme fitness (log ratio)": "≤ -4.2"}
{"variant": "A12C U61A G84U A97U U145C", "polymerase ribozyme fitness (log ratio)": "≤ -4.2"}
{"variant": "U13G U53A C85A C95U A98U G141C", "polymerase ribozyme fitness (log ratio)": "≤ -4.2"}
{"variant": "C14G C85A", "polymerase ribozyme fitness (log ratio)": -3.74}
{"variant": "C14G A60G", "polymerase ribozyme fitness (log ratio)": -2.34}
{"variant": "U13G U56A A91G", "polymerase ribozyme fitness (log ratio)": -3.81}
{"variant": "C14G C36U C85U G136U A138G", "polymerase ribozyme fitness (log ratio)": "≤ -4.2"}
{"variant": "A12U C57U", "polymerase ribozyme fitness (log ratio)": -0.208}
{"variant": "C14G A17C A23C A40C G88A G94U C123G U134G G140A", "polymerase ribozyme fitness (log ratio)": "≤ -4.2"}
{"variant": "A12G A21C C32U U55G", "polymerase ribozyme fitness (log ratio)": -1.77}
{"variant": "A12G G58A U148C", "polymerase ribozyme fitness (log ratio)": -1.8}
{"variant": "C14G A22U A39U", "polymerase ribozyme fitness (log ratio)": "≤ -4.2"}
{"variant": "C14A C105U", "polymerase ribozyme fitness (log ratio)": -0.869}
{"variant": "U13C U56A C72U C93A C96U", "polymerase ribozyme fitness (log ratio)": -3.76}
{"variant": "C14G A29U", "polymerase ribozyme fitness (log ratio)": -3.98}
{"variant": "U13G G59U C85U G94U G112A C116A", "polymerase ribozyme fitness (log ratio)": "≤ -4.2"}
{"variant": "A12C C105G", "polymerase ribozyme fitness (log ratio)": -2.6}
{"variant": "A12U A37C U45A U55A C85U G92A", "polymerase ribozyme fitness (log ratio)": "≤ -4.2"}
{"variant": "A12G C54G G80A U144A", "polymerase ribozyme fitness (log ratio)": -3.53}
{"variant": "C14A A22G G86U G140C", "polymerase ribozyme fitness (log ratio)": "≤ -4.2"}
{"variant": "C14A G59C C85A C99U G141U U146G", "polymerase ribozyme fitness (log ratio)": "≤ -4.2"}
{"variant": "C14A A39U C85G G140A", "polymerase ribozyme fitness (log ratio)": "≤ -4.2"}
{"variant": "C14A U53A C87G", "polymerase ribozyme fitness (log ratio)": "≤ -4.2"}
{"variant": "A12U C14G A20G A73G U77A G86U C96U G117U", "polymerase ribozyme fitness (log ratio)": "≤ -4.2"}
{"variant": "A12U G58A U144C U146A", "polymerase ribozyme fitness (log ratio)": -3.88}
{"variant": "U13G A47G G48A A89C C93U C99G", "polymerase ribozyme fitness (log ratio)": "≤ -4.2"}
{"variant": "C14A A37U G84A C125U", "polymerase ribozyme fitness (log ratio)": -3.95}
{"variant": "C14A A20G C79A G94C G141A", "polymerase ribozyme fitness (log ratio)": "≤ -4.2"}
{"variant": "U13C C43A A73C G92U", "polymerase ribozyme fitness (log ratio)": "≤ -4.2"}
{"variant": "C14A A28G A122U U134G U144G", "polymerase ribozyme fitness (log ratio)": "≤ -4.2"}
{"variant": "A12U U13G A52U C54A", "polymerase ribozyme fitness (log ratio)": "≤ -4.2"}
{"variant": "C14G A30G A52C C72A C95G C103G", "polymerase ribozyme fitness (log ratio)": "≤ -4.2"}
{"variant": "C14G C54U G68C C87U", "polymerase ribozyme fitness (log ratio)": "≤ -4.2"}
{"variant": "A12U C36U U61G G67A U82G A106G A138U", "polymerase ribozyme fitness (log ratio)": -4.08}
{"variant": "A12G C36U A37C G59C U102A C118G A120C U146A", "polymerase ribozyme fitness (log ratio)": "≤ -4.2"}
{"variant": "A12U G48U C51A G58C U61G C114U", "polymerase ribozyme fitness (log ratio)": "≤ -4.2"}
{"variant": "A12U A19C U82C C129G", "polymerase ribozyme fitness (log ratio)": -3.41}
{"variant": "C14G A89U", "polymerase ribozyme fitness (log ratio)": -2.66}
{"variant": "A12U U55A", "polymerase ribozyme fitness (log ratio)": -0.315}
{"variant": "U13A C54A G84U G88U", "polymerase ribozyme fitness (log ratio)": "≤ -4.2"}
{"variant": "C14G G34U A41C U77G G83U A115G U135G", "polymerase ribozyme fitness (log ratio)": "≤ -4.2"}
{"variant": "A12U C14G G25C C85G G94A U104C A106U C116G U139C", "polymerase ribozyme fitness (log ratio)": "≤ -4.2"}
{"variant": "A12C U102C A138C", "polymerase ribozyme fitness (log ratio)": "≤ -4.2"}
{"variant": "A12G A37C G86A C95A", "polymerase ribozyme fitness (log ratio)": "≤ -4.2"}
{"variant": "U13C C18G C35G A40G C63A A91U C118U C132U A150U", "polymerase ribozyme fitness (log ratio)": "≤ -4.2"}
{"variant": "U13G G84A", "polymerase ribozyme fitness (log ratio)": -0.636}
{"variant": "U13G A19U A22C G46C G81C C95U G140C", "polymerase ribozyme fitness (log ratio)": "≤ -4.2"}
{"variant": "C14G G50U C87U C96A", "polymerase ribozyme fitness (log ratio)": -4.12}
{"variant": "U13G C27U C32G U56G C93U", "polymerase ribozyme fitness (log ratio)": "≤ -4.2"}
{"variant": "A12G C38U G86A C87U A121C G136A", "polymerase ribozyme fitness (log ratio)": "≤ -4.2"}
{"variant": "U13G A49C G152U", "polymerase ribozyme fitness (log ratio)": "≤ -4.2"}
{"variant": "U13C A16U U33A C54G G67C G133U U144A", "polymerase ribozyme fitness (log ratio)": "≤ -4.2"}
{"variant": "C14A C27G A28G C43U G81A G84U U109G G143A", "polymerase ribozyme fitness (log ratio)": "≤ -4.2"}
{"variant": "A12G C38U C57G G62A C93A", "polymerase ribozyme fitness (log ratio)": -2.77}
{"variant": "C14A C32U C85U A98U U111G U139G U151A", "polymerase ribozyme fitness (log ratio)": -4.14}
{"variant": "C14G G50U C87A G112C C123U U148G", "polymerase ribozyme fitness (log ratio)": "≤ -4.2"}
{"variant": "C14A C72U", "polymerase ribozyme fitness (log ratio)": -1.72}
{"variant": "C14G A23U A41U U78C G80C G81U C96U A110U G143U", "polymerase ribozyme fitness (log ratio)": "≤ -4.2"}
{"variant": "C14G A19G A20C G117A G124C", "polymerase ribozyme fitness (log ratio)": -3.94}
{"variant": "A12G C85A C118A", "polymerase ribozyme fitness (log ratio)": -0.759}
{"variant": "A12U G50A C85A C87U G133C", "polymerase ribozyme fitness (log ratio)": "≤ -4.2"}
